These results are taken from paper PMC10275640.

In experiment [1] the target is Bos1-GST (Bos1 cytoplasmic domain, residues 1–219) (Aspergillus nidulans). As to the kind of experiment: pull-down; 75 µg SNARE-GST on glutathione Sepharose; His6 preys at 0.2 µM, overnight at 4 °C in 25 mM HEPES-KOH pH 7.5, 150 mM NaCl, 10% glycerol, 0.1% Triton X-100, 0.1 mM DTT; anti-His blot.
In experiment [2] the target is Uso1(E6K/G540S)-His6x (full length) (Aspergillus nidulans). The experiment in a line: AUC + other: dynamic light scattering; sedimentation velocity (20 °C, 48,000 rpm, PBS with 5% glycerol and 1 mM β-mercaptoethanol) and DLS at 20 °C; molecular mass from the Svedberg equation, compared with the predicted monomer.
Experiment [3] addresses Bos1-GST (Bos1 cytoplasmic domain, residues 1–219). The experiment in a line: GST pull-down with purified proteins, anti-His6x western blot quantitation. The settings on record: 4 data points; parent: est. 0.5; read off a plot.
The target in experiment [4] is Uso1 CCD-His6x (coiled-coil domain, residues 660–1103) (Aspergillus nidulans). As to the kind of experiment: AUC + other: dynamic light scattering; sedimentation velocity (20 °C, 48,000 rpm, PBS with 5% glycerol and 1 mM β-mercaptoethanol) and DLS at 20 °C; molecular mass from the Svedberg equation, compared with the predicted monomer.
Experiment [5] deals with Bet1-GST (Bet1 cytoplasmic domain, residues 1–144). As to the kind of experiment: GST pull-down with purified proteins, anti-His western blot quantitation. To be noted: n = 3, read off a plot. (In general: Immunoblotting shows a protein as a band on a membrane.)
Experiment [6] concerns the target Uso1-HA3 (native full-length Uso1 in Aspergillus extract) (Aspergillus nidulans). As to the kind of experiment: SEC; Aspergillus cell extract on Superose 6 10/300 in 25 mM Tris-HCl pH 7.5, 600 mM KCl, 4 mM EDTA, 1 mM DTT; fractions blotted with α-HA. Background: Size exclusion chromatography separates by hydrodynamic size, large species first.
Experiment [7] deals with Bos1-GST (Bos1 cytoplasmic domain, residues 1–219). The experiment in a line: GST pull-down with purified proteins, anti-His western blot quantitation. To be noted: n = 3; parent: est. 0.7; read off a plot.
The target in experiment [8] is Uso1ΔCTR-His6x (residues 1–1040) (Aspergillus nidulans). The experiment in a line: AUC + other: dynamic light scattering; sedimentation velocity (20 °C, 48,000 rpm, PBS with 5% glycerol and 1 mM β-mercaptoethanol) and DLS at 20 °C; molecular mass from the Svedberg equation, compared with the predicted monomer.
Experiment [9] has as its target Uso1(E6K/G540S)ΔCTR-His6x (residues 1–1040) (Aspergillus nidulans). The experiment is described as above.
Experiment [10] concerns the target Uso1-His6x (full-length Uso1, residues 1–1103) (Aspergillus nidulans). As to the kind of experiment: SEC; bacterially expressed, purified His-tagged reference proteins run on the same Superose column; fractions blotted with α-His.
The target of experiment [11] is Bet1-GST (Bet1 cytoplasmic domain, residues 1–144) (Aspergillus nidulans). The experiment in a line: pull-down; 75 µg SNARE-GST on glutathione Sepharose; His6 preys at 0.2 µM, overnight at 4 °C in 25 mM HEPES-KOH pH 7.5, 150 mM NaCl, 10% glycerol, 0.1% Triton X-100, 0.1 mM DTT; anti-His blot.
For experiment [12], the target named is Uso1-His6x (full-length Uso1, residues 1–1103) (Aspergillus nidulans). The experiment in a line: AUC + other: dynamic light scattering; sedimentation velocity (20 °C, 48,000 rpm, PBS with 5% glycerol and 1 mM β-mercaptoethanol) and DLS at 20 °C; molecular mass from the Svedberg equation, compared with the predicted monomer.

In the case of “Uso1(E6K/G540S)-His6x (full length) (natural protein)”, the fold change in protein retained against wild-type Uso1 in experiment [1] turned out to be 5 fold. The stoichiometry N (usually a count of units in the complex or per binding partner) in [2] was 2.
In the case of “Uso1 GHD-His6x (globular head domain, residues 1–659) G540S”, in experiment [3], the response (% of input prey bound) came out at 35.
With “Uso1 GHD E6K (single mutant), His-tagged (domain or fragment)”, the fold less efficient than G540S GHD in experiment [1] is 3 fold.
For the substance “Uso1 CCD-His6x (coiled-coil domain, residues 660–1103) (domain or fragment)”, the stoichiometry N in [4] was 2.
In the case of “Uso1-His6x (full-length Uso1, residues 1–1103) E6K; G540S”, the response in experiment [5] (parent: est. 68) is 60 % bound prey.
“Uso1-HA3 (native full-length Uso1 in Aspergillus extract) (natural protein)” yielded a stoichiometry N in experiment [6] of 2.
On to “Uso1 GHD-His6x (globular head domain, residues 1–659) E6K; G540S”, for which the figures for the response in experiment [5] (parent: est. 30) and in experiment [7] were 38 % bound prey and 21 % bound prey, respectively. Also, the response (% of input prey bound) in experiment [3] is 35.
As to “Uso1ΔCTR-His6x (residues 1–1040) (domain or fragment)”, in experiment [8], the stoichiometry N was 2.
Consider “Uso1(E6K/G540S)ΔCTR-His6x (residues 1–1040) (domain or fragment)”, for which, in experiment [9], the stoichiometry N was 2.
As to “Uso1-His6x (full-length Uso1, residues 1–1103) (natural protein)”, the stoichiometry N in experiment [10] and in experiment [12] was 2 in each case. The same substance returned a percent of the prey pulled down in experiment [11] of 70%.
